± gives the standard deviation of the averaged measurements.
B1: library; a variant is named by its letters at N, in order (parent)
chain: GCUGUCACCGGUGUAUUACCCUAGUGGUCGACCGGUCUGAUGAGUCUNNNNNNAGACGAAACAGC

Tests used:
hypoxanthine [1] = variants of: B1; experiment: FACS-Seq fitted mean relative fluorescence mCherry/BFP without ligand (log10 relative fluorescence); ligand: hypoxanthine (xanthine aptamer); higher = higher reporter protein expression; conditions: HEK293T, ligand present: no
Summary of the method: (§1)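 An mCherry reporter containing the ribozyme switch and an EF1α-BFP marker were introduced by lentivirus into HEK293T libraries. Cells were enriched, incubated 48 h with or without ligand, sorted into 6 bins by mCherry/BFP, and bin genomic DNA was PCR-amplified, barcoded and sequenced on MiSeq. Fluorescence represents the normalized fitted normal mean of the bin counts. Fitting was done on log10(mCherry/BFP), scaling to five spiked-in control ribozymes.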

hypoxanthine [2] = variants of: B1; experiment: normalized RNA/DNA level with ligand (relative to sTRSVctl = 100) (log10 (% of sTRSVctl)); ligand: hypoxanthine (xanthine aptamer); higher = less ribozyme self-cleavage, higher mRNA level; conditions: ligand concentration (+) RNA-Seq: 5 mM, HEK293T, reporter: mCherry (pCS4076), ligand present: yes
Method: (§2)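 Hammerhead (sTRSV) ribozyme switch libraries with a ligand aptamer grafted on stem I and a randomized N4-6 loop II, cloned into the 3' UTR of mCherry and transiently transfected into HEK293T cells; RNA-Seq 72 h post transfection with ligand added 1 h before transfection; RNA read count / plasmid DNA read count normalized to the non-cleaving sTRSVctl (x100), log10; sequences with >100 DNA reads. FACS-Seq: lentiviral library sorted into 6 bins after 48 h ligand, log-normal fit mean of mCherry/BFP scaled to controls. Printed sequences are partial switch sequences.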

hypoxanthine [3] = variants of: B1; experiment: normalized RNA/DNA level without ligand (relative to sTRSVctl = 100) (log10 (% of sTRSVctl)); ligand: hypoxanthine (xanthine aptamer); higher = less ribozyme self-cleavage, higher mRNA level; conditions: HEK293T, reporter: mCherry (pCS4076), ligand present: no
Method: as §2

hypoxanthine [4] = variants of: B1; experiment: FACS-Seq fitted mean relative fluorescence mCherry/BFP with ligand (log10 relative fluorescence); ligand: hypoxanthine (xanthine aptamer); ligand concentration (+) FACS-Seq: 5 mM; higher = higher reporter protein expression; conditions: HEK293T, ligand present: yes
Summary of the method: as §1

Row | Variant | FACS-Seq fitted mean (log10) (hypoxanthine [1]) | normalized RNA/DNA level with ligand (log10) (hypoxanthine [2]) | normalized RNA/DNA level without ligand (log10) (hypoxanthine [3]) | FACS-Seq fitted mean (log10) (hypoxanthine [4])
1 | UAUAGU | 0.0206 ± 0.046 | 1.86 ± 0.029 | 1.57 ± 0.063 | 0.131 ± 0.037
2 | GAGCUA | 0.221 ± 0.077 | 1.925 ± 0.018 | 1.722 ± 0.004 | 0.293 ± 0.039
3 | GAGCUG | 0.345 ± 0.0035 | 1.86 ± 0.03 | 1.31 ± 0.028 | 0.75 ± 0.083
4 | AAUCAU | 0.507 ± 0.019 | 1.9 ± 0.027 | 1.8365 ± 0.00062 | 0.523 ± 0.057
5 | AAUCAC | -0.698 ± 0.014 | 1.95 ± 0.04 | 1.849 ± 0.0051 | -0.545 ± 0.04
6 | GAGUUG | 0.0221 ± 0.018 | 1.62 ± 0.1 | 1.14 ± 0.038 | 0.503 ± 0.022
7 | GAGUUU | 0.34 ± 0.066 | 1.92 ± 0.058 | 1.83 ± 0.026 | 0.348 ± 0.13
8 | AAUAAA | 0.416 ± 0.064 | 1.872 ± 0.014 | 1.756 ± 0.011 | 0.252 ± 0.092
9 | AAUAAU | 0.172 ± 0.059 | 1.89 ± 0.022 | 1.75 ± 0.021 | 0.376 ± 0.046
10 | AAUAAG | 0.306 ± 0.0098 | 1.83 ± 0.024 | 1.473 ± 0.005 | 0.638 ± 0.04
11 | AAGAUG | 0.0294 ± 0.013 | 1.64 ± 0.087 | 1.09 ± 0.045 | 0.578 ± 0.025
12 | AAGAUU | -0.294 ± 0.047 | 1.9382 ± 0.00039 | 1.805 ± 0.016 | 0.11 ± 0.042
13 | AAUCGG | 0.134 ± 0.047 | 1.837 ± 0.013 | 1.373 ± 0.006 | 0.58 ± 0.038
14 | GAGGCG | 0.189 ± 0.012 | 1.95 ± 0.012 | 1.68 ± 0.088 | 0.597 ± 0.047
15 | GAGGCU | 0.751 ± 0.037 | 2 ± 0.021 | 1.98 ± 0.036 | 0.721 ± 0.025
16 | GAGGCA | 0.306 ± 0.0093 | 1.937 ± 0.018 | 1.9192 ± 0.0019 | 0.427 ± 0.021
17 | CAGCGG | 0.2617 ± 0.00076 | 1.9 ± 0.031 | 1.48 ± 0.029 | 0.612 ± 0.059
18 | CAGCGU | -0.166 ± 0.056 | 1.967 ± 0.017 | 1.89 ± 0.046 | -0.185 ± 0.11
19 | UAUCCG | 0.207 ± 0.053 | 1.927 ± 0.019 | 1.71 ± 0.035 | 0.451 ± 0.096
20 | CAGGAA | 0.2364 ± 0.0018 | 1.958 ± 0.014 | 1.58 ± 0.074 | 0.529 ± 0.019
21 | CAGGAU | 0.34323 ± 0.00015 | 1.947 ± 0.013 | 1.682 ± 0.015 | 0.512 ± 0.028
22 | AAGGUA | 0.0361 ± 0.0026 | 1.767 ± 0.012 | 1.62 ± 0.021 | 0.162 ± 0.035
23 | AAGGUG | -0.0635 ± 0.037 | 1.666 ± 0.0026 | 1.22 ± 0.024 | 0.37 ± 0.077
24 | AAGGUU | 0.941 ± 0.099 | 1.93 ± 0.021 | 1.7849 ± 0.0012 | 0.771 ± 0.19

Row | Variant | FACS-Seq fitted mean (log10) (hypoxanthine [1]) | normalized RNA/DNA level with ligand (log10) (hypoxanthine [2]) | normalized RNA/DNA level without ligand (log10) (hypoxanthine [3]) | FACS-Seq fitted mean (log10) (hypoxanthine [4])
25 | CAUACG | 0.394 ± 0.013 | 1.903 ± 0.016 | 1.88 ± 0.079 | 0.469 ± 0.045
26 | AAGGCG | 0.0654 ± 0.029 | 1.77 ± 0.08 | 1.24 ± 0.032 | 0.526 ± 0.018
27 | GAGGAG | 0.288 ± 0.028 | 1.65 ± 0.042 | 1.17 ± 0.068 | 0.643 ± 0.013
28 | GAGGAC | 0.178 ± 0.038 | 1.91 ± 0.041 | 1.6478 ± 0.00029 | 0.308 ± 0.1
29 | GAGGAA | 0.318 ± 0.036 | 1.88 ± 0.032 | 1.54 ± 0.026 | 0.581 ± 0.073
30 | UAGAUG | -0.00441 ± 0.085 | 1.9 ± 0.081 | 1.615 ± 0.0023 | 0.344 ± 0.03
31 | UAGCGA | 0.324 ± 0.049 | 1.89 ± 0.041 | 1.65 ± 0.025 | 0.447 ± 0.054
32 | UAGCGG | 0.335 ± 0.051 | 1.875 ± 0.017 | 1.542 ± 0.011 | 0.534 ± 0.035
33 | GAGCAA | 0.362 ± 0.027 | 1.892 ± 0.013 | 1.581 ± 0.0039 | 0.596 ± 0.09
34 | GAGCAG | -0.00628 ± 0.045 | 1.67 ± 0.027 | 1.19 ± 0.024 | 0.5054 ± 0.0013
35 | GAGCAC | 0.773 ± 0.029 | 1.89 ± 0.037 | 1.71 ± 0.05 | 0.682 ± 0.074
36 | AAUACC | 0.491 ± 0.22 | 1.933 ± 0.019 | 1.895 ± 0.0024 | 0.448 ± 0.018
37 | AAUACG | 0.407 ± 0.1 | 1.844 ± 0.01 | 1.44 ± 0.067 | 0.609 ± 0.057
38 | AAUACA | 0.346 ± 0.053 | 1.88 ± 0.05 | 1.801 ± 0.0096 | 0.496 ± 0.0044
39 | AAGUAA | 0.279 ± 0.049 | 1.86 ± 0.036 | 1.601 ± 0.012 | 0.457 ± 0.048
40 | AAGUAU | 0.434 ± 0.12 | 1.895 ± 0.011 | 1.68 ± 0.019 | 0.301 ± 0.0055
41 | AAGUAC | 0.425 ± 0.075 | 1.89 ± 0.065 | 1.647 ± 0.015 | 0.673 ± 0.064
42 | AAGUAG | -0.0595 ± 0.042 | 1.593 ± 0.013 | 1.1 ± 0.048 | 0.568 ± 0.023
43 | AAUAUG | 0.333 ± 0.056 | 1.84 ± 0.04 | 1.462 ± 0.014 | 0.53 ± 0.0062
44 | AAUAUA | 0.619 ± 0.062 | 1.89 ± 0.024 | 1.78 ± 0.034 | 0.599 ± 0.07
45 | AAGUUA | -0.098 ± 0.017 | 1.89 ± 0.02 | 1.613 ± 0.013 | 0.476 ± 0.07
46 | AAGUUU | -0.231 ± 0.049 | 1.898 ± 0.012 | 1.87 ± 0.023 | -0.254 ± 0.013
47 | AAGUUG | -0.243 ± 0.014 | 1.626 ± 0.013 | 1.12 ± 0.013 | 0.435 ± 0.052
48 | UAUAAG | 0.0362 ± 0.033 | 1.87 ± 0.034 | 1.611 ± 0.015 | 0.291 ± 0.019

Row | Variant | FACS-Seq fitted mean (log10) (hypoxanthine [1]) | normalized RNA/DNA level with ligand (log10) (hypoxanthine [2]) | normalized RNA/DNA level without ligand (log10) (hypoxanthine [3]) | FACS-Seq fitted mean (log10) (hypoxanthine [4])
49 | UAUAAU | 0.434 ± 0.04 | 1.93 ± 0.021 | 1.785 ± 0.0039 | 0.588 ± 0.067
50 | GAGGGC | -0.0173 ± 0.076 | 1.87 ± 0.056 | 1.5 ± 0.021 | 0.367 ± 0.041
51 | UAGGAA | 0.348 ± 0.033 | 1.88 ± 0.031 | 1.64 ± 0.018 | 0.483 ± 0.056
52 | UAGGAU | 0.683 ± 0.097 | 1.94 ± 0.027 | 1.66 ± 0.021 | 0.628 ± 0.013
53 | GAGCCA | -0.0202 ± 0.12 | 1.93 ± 0.066 | 1.76 ± 0.018 | 0.234 ± 0.1
54 | CAUAAA | 0.609 ± 0.07 | 1.89 ± 0.038 | 1.735 ± 0.01 | 0.597 ± 0.038
55 | CAUAAU | 0.515 ± 0.078 | 1.88 ± 0.059 | 1.793 ± 0.011 | 0.559 ± 0.061
56 | GAUCCG | 0.0801 ± 0.012 | 1.94 ± 0.048 | 1.77 ± 0.051 | 0.31 ± 0.0077
57 | GAGCGC | 0.507 ± 0.012 | 1.89 ± 0.026 | 1.55 ± 0.017 | 0.556 ± 0.09
58 | GAGCGG | -0.363 ± 0.054 | 1.64 ± 0.037 | 1.21 ± 0.073 | 0.0659 ± 0.25
59 | GAGCGA | 0.291 ± 0.062 | 1.89 ± 0.03 | 1.497 ± 0.0043 | 0.54 ± 0.037
60 | UAUAUA | 0.814 ± 0.011 | 1.95 ± 0.04 | 1.836 ± 0.018 | 0.838 ± 0.068
61 | UAUAUG | 0.385 ± 0.02 | 1.88 ± 0.049 | 1.723 ± 0.013 | 0.531 ± 0.025
62 | UAGUCC | 0.327 ± 0.0056 | 1.97 ± 0.067 | 1.92 ± 0.023 | 0.646 ± 0.091
63 | UAGUCA | 0.551 ± 0.061 | 1.944 ± 0.0025 | 1.853 ± 0.006 | 0.647 ± 0.03
64 | CAGCUC | 0.219 ± 0.029 | 2.03 ± 0.022 | 1.972 ± 0.014 | 0.115 ± 0.03
65 | AAGUCA | 0.838 ± 0.069 | 1.9 ± 0.062 | 1.63 ± 0.062 | 0.608 ± 0.1
66 | AAGUCU | -0.27 ± 0.07 | 1.91 ± 0.046 | 1.84 ± 0.053 | -0.266 ± 0.014
67 | AAGUCG | -0.00018 ± 0.0075 | 1.79 ± 0.11 | 1.187 ± 0.0065 | 0.661 ± 0.016
68 | GAGUCA | 0.644 ± 0.03 | 1.906 ± 0.014 | 1.74 ± 0.056 | 0.707 ± 0.032
69 | UAGUAG | 0.218 ± 0.026 | 1.86 ± 0.04 | 1.49 ± 0.058 | 0.441 ± 0.097
70 | GAUAUA | 0.804 ± 0.057 | 1.91 ± 0.034 | 1.8 ± 0.061 | 0.741 ± 0.0099
71 | GAUAUG | 0.0367 ± 0.045 | 1.85 ± 0.029 | 1.39 ± 0.017 | 0.215 ± 0.097

Reference: the supplement of paper PMC6757056
